Test results reported in patent publication US20240400722A1, “Chemically Inducible Heterodimerizing System and A Method For Generation Thereof” (Miltenyi Biotec B.V. & Co. KG, priority 2023, published 2024).
Positions count from the first letter of the chain named. In names and notes the source's numbering stands. Entries after “also recorded” stand apart in the source; their conditions may differ.

Experiments:
acVHH-V104D [1] = experiment: NanoBiT protein complementation assay in Jurkat T cells, intracellular binding to acVHH-V104D; format: cell-based, llama; settings: for background signal at very low concentrations of caffeine / background signal in the absence of caffeine: compared with acVHH-WT/acVHH-WT homodimers
Text: (§1) The ac VHH variants were N-terminally fused to an extracellular globular domain used to assess expression, as well as a transmembrane domain, and C-terminally fused to a subunit of the split NanoLuc (NanoBiT® system), Promega. Thus, the resulting fusion protein consisted of an extracellular globular domain, followed by a transmembrane domain and intracellular ac VHH variants followed by a subunit of split NanoLuc luciferase.
The different chains built were as follows: the first polypeptide chain comprised truncated EGFR extracellular and transmembrane domain, followed by a 2×G4S linker and cither ac VHH-V104D or ac VHH-WT, followed by a linker (SEQ ID NO:31) and 11S NanoBiT® “Large BiT”, whereas the second polypeptide chain comprised truncated HER2 extracellular and transmembrane domain, followed by a linker (SEQ ID NO:32) and either ac VHH-V104D or ac VHH-WT or ac VHH-M1 or acVHH-M2 or dfM1-1 or dfM1-2, followed by a linker (SEQ ID NO:33) and 114 NanoBiT® “Small BiT”. The sequence of the truncated HER2 extracellular and transmembrane domain involved the amino acids at positions 339-683 according to the deposited Uniprot sequence (ID P04626). The sequence of the truncated EGFR extracellular and transmembrane domain involved the amino acids at positions 334-675 according to the deposited Uniprot sequence (ID P00533). The principle of the assay is as follows: upon binding of (i.e. dimerization) of the respective ac VHH variants, the fused NanoLuc luciferase subunits are brought into close proximity (the two subunits being fused to the two different polypeptide chains, respectively), thus resulting in a functional luciferase enzyme, whose activity can be measured.
In vitro transcription was performed with 200 ng of purified PCR product using the mMessage mMachine T7 Ultra Kit (Ambion) according to the manufacturer's instructions. The resulting mRNAs were column purified with the RNeasy Kit (Qiagen), aliquoted to 5 μg and frozen at −80° C. until electroporation. Jurkat T cells were electroporated with 5 μg mRNA per chain (10 μg mRNA total) using the Gene Pulser (Bio-Rad) and the following parameters: square wave protocol, 500 V, 5 ms, 4 mm cuvettes.
Intracellular function of the dimers was assessed with the Nano-Glo® Luciferase Assay System (Promega).

acVHH-V104D [2] = experiment: Yeast surface display binding of acVHH variants to soluble acVHH-V104D; set-up: species or system llama; settings: for background binding signal in the absence of any small molecule: 500 nM soluble acVHH-V104D, buffer only (control, PBSA); for affinity towards acVHH-V104D: summary statement, interaction dependent on caffeine; for affinity (KD) to acVHH-V104D: titration with soluble acVHH-V104D in the presence of 30 μM caffeine; for dependency of heterodimerization with acVHH-V104D on the presence of caffeine: yeast display flow cytometry, with or without caffeine
Protocol: The staining for flow cytometry characterization was performed in PBSA (PBS containing 15 μM bovine serum albumin). […] In addition, controls with buffer only (containing neither an ac VHH variant nor caffeine) were included. After a washing step the cells were stained for 20 min at 4° C. and shaking with either streptavidin-Alexa Fluor 647 (Invitrogen) or Penta-His-Alexa Fluor 647 (Qiagen) to assess acVHH-V104D or acVHH-WT binding, as well as anti-HA-Alexa Fluor 488 (clone 16B12, Biolegend) or anti-c-myc AlexaFluor 488 (9E10, Thermofisher) to assess display (anti-HA) or full-length display (anti-c-myc) of the acVHH variants, respectively. After a final washing step, the cells were analyzed with a CytoFLEX S flow cytometer (Beckman Coulter).
Expression of the acVHH variants on yeast was induced by culturing the cells in SG-CAA medium (20 g/L galactose, 2 g/L glucose, 6.7 g/L yeast nitrogen base, 5 g/L bacto casamino acids, 10.2 g/L Na2HPO4*7 H2O, 8.56 g/L NaH2PO4*H2O) overnight at 20° C. and 180 rpm. Detection of full-length proteins on the surface of the cells was carried out by staining the cells with anti-c-myc AlexaFluor 488 (9E10, Thermo Fisher). […] After a washing step with PBSA, they were stained with an anti-HA-Alexa Fluor 488 (BioLegend) to gate for displaying yeast cells and the geometric mean fluorescence intensity (gMFI) of binding to acVHH-V104D, detected by co-staining with a Penta-His-Alexa Fluor 647 (Qiagen) (recognizing the His-tag on acVHH-V104D) was measured.
Expression of the variants on yeast was carried out in SG-CAA as described above. Full length display was assessed by staining with an anti-c-myc AlexaFluor 488 (9E10, Thermo Fisher) and binding to soluble acVHH-V104D was assessed by staining with Penta-His-Alexa Fluor 647 (Qiagen).
56 clones of the library were sequenced as explained in Example 2. Only 2 variants were obtained, namely dfM1-1 and dfM1-2. Their binding and affinity to soluble acVHH-V104D as well as full length display was assessed with yeast surface display as described in Example 2.

[3] = Preparative size exclusion chromatography of acVHH variants; format: physicochemical; settings: HiLoad Superdex 75 pg, elution in PBS
Protocol: Protein aggregates were removed via preparative size exclusion chromatography (SEC). The samples were first centrifuged at 16 000 rpm for 3 min to remove large aggregates and the supernatant was loaded onto a HiLoad Superdex 75 pg column connected to a Bio-Rad NG-C chromatography system. Elution was performed in PBS and the fractions containing proteins based on absorbance at 280 nm were pooled, concentrated as mentioned above and stored at −30° C.

acVHH-WT = experiment: NanoBiT protein complementation assay in Jurkat T cells, acVHH-WT homodimer; format: cell-based, llama
Text: as §1
The different chains built were as follows: the first polypeptide chain comprised truncated EGFR extracellular and transmembrane domain, followed by a 2×G4S linker and cither ac VHH-V104D or ac VHH-WT, followed by a linker (SEQ ID NO:31) and 11S NanoBiT® “Large BiT”, whereas the second polypeptide chain comprised truncated HER2 extracellular and transmembrane domain, followed by a linker (SEQ ID NO:32) and either ac VHH-V104D or ac VHH-WT or ac VHH-M1 or acVHH-M2 or dfM1-1 or dfM1-2, followed by a linker (SEQ ID NO:33) and 114 NanoBiT® “Small BiT”. […] The principle of the assay is as follows: upon binding of (i.e. dimerization) of the respective ac VHH variants, the fused NanoLuc luciferase subunits are brought into close proximity (the two subunits being fused to the two different polypeptide chains, respectively), thus resulting in a functional luciferase enzyme, whose activity can be measured. […]

[4] = +/- 30 μM caffeine, normalized to acVHH-WT homodimer with caffeine
[5] = increasing concentrations of caffeine

B1: dfM1-1 (protein)
chain: QVQLVESGGGLVQAGGSLRLSATAYGKTGTIYSMAWFRQAPGKEREFLAPVALGLQSTYYMDSVKGRFTISRDKGKNTVYLQMDSLKPEDTAVYYAAATRAYSVGYDYWGQGTQVTVTS
modifications: left off: large carriers; small tags and cut ends
Which results are given for B1?
intracellular binding with acVHH-V104D (acVHH-V104D [1]; [4]): efficient heterodimerization; background signal at very low concentrations of caffeine (acVHH-V104D [1]): strongly reduced; background signal in the absence of caffeine (acVHH-V104D [1]): strongly reduced; background binding signal in the absence of any small molecule (acVHH-V104D [2]): does not trigger any detectable signal; affinity towards acVHH-V104D (acVHH-V104D [2]): high affinity in the nanomolar range; affinity (KD) to acVHH-V104D (acVHH-V104D [2]): low nM range

B2: dfM1-2 (protein)
chain: B1 chain with Q1E, K27R, T118S
modifications: left off: large carriers; small tags and cut ends
For B2, which “intracellular binding with acVHH-V104D” value (acVHH-V104D [1]; [4]) is on record?
The value was “efficient heterodimerization”.

What about the “background signal at very low concentrations of caffeine” value (acVHH-V104D [1]) of the same molecule?
The value was “strongly reduced”.

What about the “background signal in the absence of caffeine” value (acVHH-V104D [1]) of the same molecule?
Its value is “strongly reduced”.

And the “background binding signal in the absence of any small molecule” value (acVHH-V104D [2])?
Its value is “does not trigger any detectable signal”.

And the “affinity towards acVHH-V104D” value (acVHH-V104D [2])?
Its value is “high affinity in the nanomolar range”.

What about the “affinity (KD) to acVHH-V104D” value (acVHH-V104D [2]) of the same molecule?
Its value is “low nM range”.

B3: acVHH-V104D: acVHH-WT variant with point mutation V104D, SEQ ID NO:2; first antigen binding domain AB1 (protein)
VHH: QVQLVESGGGLVQAGGSLRLSCTASGRTGTIYSMAWFRQAPGKEREFLATVGWSSGITYYMDSVKGRFTISRDKGKNTVYLQMDSLKPEDTAVYYCTATRAYSDGYDYWGQGTQVTVSS
With B3 as the molecule, how does the “intracellular binding with acVHH-V104D” value (acVHH-V104D [1]; [4]) read?
Its value is “does not show any detectable homodimerization”.

And the “intracellular binding with acVHH-V104D” value (acVHH-V104D [1]; [5])?
The value was “does not show any detectable homodimerization”.

What about the “preparative SEC profile” value [3] of the same molecule?
The value was “monomeric profile; also recorded: elutes as a defined monomeric peak”.

B4: acVHH-WT: existing thermally stable caffeine-specific single domain antibody fragment from llama used for homodimerization, SEQ ID NO:1 (protein)
VHH: B3 VHH with D104V
Which results are given for B4?
intracellular binding with acVHH-V104D (acVHH-V104D [1]; [5]): very weak heterodimerization; intracellular homodimerization of acVHH-WT (acVHH-WT; +/- 30 μM caffeine): shows homodimerization, which is enhanced by addition of caffeine; intracellular homodimerization of acVHH-WT (acVHH-WT; [5]): shows homodimerization, which is enhanced by addition of caffeine

B5: acVHH-M2 (protein)
chain: B3 VHH with T50Q, V51Q, G52R, S54L, S55F, G56R, I57R, D104V
modifications: left off: large carriers; small tags and cut ends
With B5 as the molecule, how does the “intracellular binding with acVHH-V104D” value (acVHH-V104D [1]; [4]) read?
The value was “not detectable”.

What about the “background signal in the absence of caffeine” value (acVHH-V104D [1]) of the same molecule?
Its value is “strongly reduced”.

What about the “background binding signal in the absence of any small molecule” value (acVHH-V104D [2]) of the same molecule?
The value was “virtual absence of any background signal”.

And the “affinity towards acVHH-V104D” value (acVHH-V104D [2])?
Its value is “high affinity in the nanomolar range”.

What about the “dependency of heterodimerization with acVHH-V104D on the presence of caffeine” value (acVHH-V104D [2]) of the same molecule?
Its value is “clear dependency”.

B6: acVHH-M1 (protein)
chain: B1 chain with A22C, Y25S, K27R, A96C, A97T, T118S
modifications: left off: large carriers; small tags and cut ends
What does the source list for B6?
intracellular binding with acVHH-V104D (acVHH-V104D [1]; [4]): weak; background signal at very low concentrations of caffeine (acVHH-V104D [1]): strongly reduced; background signal in the absence of caffeine (acVHH-V104D [1]): strongly reduced; background binding signal in the absence of any small molecule (acVHH-V104D [2]): virtual absence of any background signal; also recorded: does not trigger any detectable signal; affinity towards acVHH-V104D (acVHH-V104D [2]): high affinity in the nanomolar range; affinity (KD) to acVHH-V104D (acVHH-V104D [2]): low nM range; dependency of heterodimerization with acVHH-V104D on the presence of caffeine (acVHH-V104D [2]): clear dependency
